Positions count from the first letter of the chain named.
How the values were obtained:
[1] = molecular target: T1, human EphA1 extracellular region-SEAP-His protein (human, UniProt P21709 26-547); test: ELISA
T1 construct: extracellular domain; also called hEphA1-SEAP-His
T1 sequence (looked up): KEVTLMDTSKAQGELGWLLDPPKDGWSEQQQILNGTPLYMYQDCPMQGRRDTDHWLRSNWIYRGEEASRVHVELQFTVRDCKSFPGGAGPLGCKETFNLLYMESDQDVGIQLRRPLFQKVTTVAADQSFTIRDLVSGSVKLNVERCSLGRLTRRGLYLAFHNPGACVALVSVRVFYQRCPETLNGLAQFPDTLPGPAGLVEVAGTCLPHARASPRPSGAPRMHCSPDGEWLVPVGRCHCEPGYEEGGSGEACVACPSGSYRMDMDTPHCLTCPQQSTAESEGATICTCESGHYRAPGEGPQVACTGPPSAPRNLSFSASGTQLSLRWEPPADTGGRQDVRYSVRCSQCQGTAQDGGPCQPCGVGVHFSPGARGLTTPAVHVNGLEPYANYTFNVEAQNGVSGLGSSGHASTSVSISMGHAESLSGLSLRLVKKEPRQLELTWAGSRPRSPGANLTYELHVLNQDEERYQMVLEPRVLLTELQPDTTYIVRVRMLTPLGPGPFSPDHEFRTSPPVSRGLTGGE

[2] = molecular target: T2, human EphB1 extracellular region-SEAP-His protein (human, UniProt P54762 18-540); test: ELISA
T2 construct: extracellular domain; also called hEphB1-SEAP-His
T2 sequence (looked up): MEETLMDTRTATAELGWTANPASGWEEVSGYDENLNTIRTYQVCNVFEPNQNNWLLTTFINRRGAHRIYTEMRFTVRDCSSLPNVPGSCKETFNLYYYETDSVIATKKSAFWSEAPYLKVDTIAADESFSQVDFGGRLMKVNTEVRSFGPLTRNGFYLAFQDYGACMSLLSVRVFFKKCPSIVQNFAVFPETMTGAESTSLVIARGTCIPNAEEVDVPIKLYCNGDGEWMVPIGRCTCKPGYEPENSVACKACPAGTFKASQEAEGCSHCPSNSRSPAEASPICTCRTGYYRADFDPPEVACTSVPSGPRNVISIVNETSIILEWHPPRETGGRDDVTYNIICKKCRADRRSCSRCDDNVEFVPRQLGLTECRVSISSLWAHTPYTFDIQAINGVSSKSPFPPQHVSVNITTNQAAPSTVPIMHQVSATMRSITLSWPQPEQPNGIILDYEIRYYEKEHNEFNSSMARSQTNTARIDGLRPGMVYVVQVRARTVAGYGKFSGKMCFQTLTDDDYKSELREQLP

B1: humanized antibody No. 85 (antibody, human IgG1, kappa)
heavy: QVQLVQSGSELKKPGASVKVSCKASGYTFTDYSMHWVRQAPGQGLKWMGWINTETGEPTYADDFKGRFVFSLDTSVSTAYLQISSLKAEDTAVYYCARIPLYYYGSRYWYFDVWGQGTTVTVSSASTKGPSVFPLAPSSKSTSGGTAALGCLVKDYFPEPVTVSWNSGALTSGVHTFPAVLQSSGLYSLSSVVTVPSSSLGTQTYICNVNHKPSNTKVDKRVEPKSCDKTHTCPPCPAPPAAAPSVFLFPPKPKDTLMISRTPEVTCVVVDVSHEDPEVQFNWYVDGVEVHNAKTKPREEQFNSTFRVVSVLTVVHQDWLNGKEYKCKVSNKGLPAPIEKTISKTKGQPREPQVYTLPPSREEMTKNQVSLTCLVKGFYPSDIAVEWESNGQPENNYKTTPPMLDSDGSFFLYSKLTVDKSRWQQGNVFSCSVMHEALHNHYTQKSLSLSPG
light: DIQMTQSPSSLSASVGDRVTITCRASENIYRNLAWYQQKPGKAPKLLLYAATNLADGVPSRFSGSGSGTDYTLTISSLQSEDFATYYCQHFWGTPWTFGQGTKVEIKRTVAAPSVFIFPPSDEQLKSGTASVVCLLNNFYPREAKVQWKVDNALQSGNSQESVTEQDSKDSTYSLSSTLTLSKADYEKHKVYACEVTHQGLSSPVTKSFNRGEC
notes: human Ig kappa; also called L1-5/HK2
With B1 the “A450 as % of hEphA4-SEAP-His” value [1] was 5% and the “A450 as % of hEphA4-SEAP-His” value [2] was 5%.

B2: humanized antibody No. 140 (antibody, human IgG2)
heavy: QVQLVQSGSELKKPGASVKVSCKASGYTFTDYSMHWVRQAPGQGLKWMGWINTETGEPTYAQGFTGRFVFSLDTSVSTAYLQISSLKAEDTAVYYCARIPLYYYGSRYWYFDVWGQGTTVTVSSASTKGPSVFPLAPSSRSTSESTAALGCLVKDYFPEPVTVSWNSGALTSGVHTFPAVLQSSGLYSLSSVVTVPSSNFGTQTYTCNVDHKPSNTKVDKTVERKSCVECPPCPAPPAAAPSVFLFPPKPKDTLMISRTPEVTCVVVDVSHEDPEVQFNWYVDGVEVHNAKTKPREEQFNSTFRVVSVLTVVHQDWLNGKEYKCKVSNKGLPAPIEKTISKTKGQPREPQVYTLPPSREEMTKNQVSLTCLVKGFYPSDIAVEWESNGQPENNYKTTPPMLDSDGSFFLYSKLTVDKSRWQQGNVFSCSVMHEALHNHYTQKSLSLSPG
light: B1 light with L48V, S80P
notes: human Ig kappa; also called L1-4/HA2
In the case of B2, the “A450 as % of hEphA4-SEAP-His” value [1] is reported as 5.5% and the “A450 as % of hEphA4-SEAP-His” value [2] is reported as 5.3%.

B3: humanized antibody No. 86 (antibody, human IgG1, kappa)
heavy: B1 heavy with V2I
light: B1 light
notes: human Ig kappa; also called L1-5/HK4
For B3, the “A450 as % of hEphA4-SEAP-His” value [1] was 5.9% and the “A450 as % of hEphA4-SEAP-His” value [2] was 5.7%.

B4: humanized antibody No. 143 (antibody, human IgG2)
heavy: B2 heavy with V2I, Q62D, G63D, T65K
light: B1 light with L48V, S80P
notes: human Ig kappa; also called L1-4/HK4
In the case of B4, the “A450 as % of hEphA4-SEAP-His” value [1] is reported as 6% and the “A450 as % of hEphA4-SEAP-His” value [2] is reported as 5.9%.

B5: humanized antibody No. 152 (antibody, human IgG2)
heavy: B2 heavy with K46E
light: B1 light
notes: human Ig kappa; also called L1-5/HA1
In the case of B5, the “A450 as % of hEphA4-SEAP-His” value [1] is reported as 5.8% and the “A450 as % of hEphA4-SEAP-His” value [2] is reported as 5.9%.

B6: humanized antibody No. 151 (antibody, human IgG2)
heavy: B2 heavy with V2I
light: B1 light
notes: human Ig kappa; also called L1-5/HA4
In the case of B6, the “A450 as % of hEphA4-SEAP-His” value [1] is reported as 7.1% and the “A450 as % of hEphA4-SEAP-His” value [2] is reported as 6.8%.

B7: humanized antibody No. 89 (antibody, human IgG1, kappa)
heavy: B1 heavy with V2I, D62Q, D63G, K65T
light: B1 light with K45Q, S80P
notes: human Ig kappa; also called L1-6/HA4
For B7, the “A450 as % of hEphA4-SEAP-His” value [1] was 5.5% and the “A450 as % of hEphA4-SEAP-His” value [2] was 5.7%.

B8: humanized antibody No. 144 (antibody, human IgG2)
heavy: B2 heavy with K46E, Q62D, G63D, T65K
light: B1 light with K45Q, S80P
notes: human Ig kappa; also called L1-6/HK1
With B8 the “A450 as % of hEphA4-SEAP-His” value [1] was 5.6% and the “A450 as % of hEphA4-SEAP-His” value [2] was 5.7%.

B9: humanized antibody No. 155 (antibody, human IgG2)
heavy: B2 heavy with V2I, Q62D, G63D, T65K
light: B1 light
notes: as for B3
In the case of B9, the “A450 as % of hEphA4-SEAP-His” value [1] is reported as 5.5% and the “A450 as % of hEphA4-SEAP-His” value [2] is reported as 5.4%.

B10: humanized antibody No. 90 (antibody, human IgG1, kappa)
heavy: B1 heavy with K46E
light: B1 light with K45Q, S80P
notes: as for B8
For B10, the “A450 as % of hEphA4-SEAP-His” value [1] was 5.1% and the “A450 as % of hEphA4-SEAP-His” value [2] was 4.9%.

B11: humanized antibody No. 138 (antibody, human IgG2)
heavy: B2 heavy with V2I
light: B1 light with L48V, S80P
notes: human Ig kappa; also called L1-4/HA4
For B11, the “A450 as % of hEphA4-SEAP-His” value [1] was 5.2% and the “A450 as % of hEphA4-SEAP-His” value [2] was 5.1%.

B12: humanized antibody No. 88 (antibody, human IgG1, kappa)
heavy: B1 heavy with D62Q, D63G, K65T
light: B1 light with K45Q, S80P
notes: human Ig kappa; also called L1-6/HA2
For B12, the “A450 as % of hEphA4-SEAP-His” value [1] was 5.8% and the “A450 as % of hEphA4-SEAP-His” value [2] was 6.1%.

B13: humanized antibody No. 153 (antibody, human IgG2)
heavy: B2 heavy
light: B1 light
notes: human Ig kappa; also called L1-5/HA2
With B13 the “A450 as % of hEphA4-SEAP-His” value [1] was 6.3% and the “A450 as % of hEphA4-SEAP-His” value [2] was 6%.

B14: humanized antibody No. 156 (antibody, human IgG2)
heavy: B2 heavy with V2I
light: B1 light with K45Q, S80P
notes: as for B7
B14 was tested, and the “A450 as % of hEphA4-SEAP-His” value [1] was 5.7% and the “A450 as % of hEphA4-SEAP-His” value [2] was 5.4%.

B15: humanized antibody No. 158 (antibody, human IgG2)
heavy: B2 heavy
light: B1 light with K45Q, S80P
notes: as for B12
With B15 the “A450 as % of hEphA4-SEAP-His” value [1] was 6.5% and the “A450 as % of hEphA4-SEAP-His” value [2] was 6.2%.

B16: humanized antibody No. 154 (antibody, human IgG2)
heavy: B2 heavy with K46E, Q62D, G63D, T65K
light: B1 light
notes: human Ig kappa; also called L1-5/HK1
In the case of B16, the “A450 as % of hEphA4-SEAP-His” value [1] is reported as 6.4% and the “A450 as % of hEphA4-SEAP-His” value [2] is reported as 6.3%.

B17: humanized antibody No. 92 (antibody, human IgG1, kappa)
heavy: B1 heavy with V2I
light: B1 light with K45Q, S80P
notes: human Ig kappa; also called L1-6/HK4
B17 was tested, and the “A450 as % of hEphA4-SEAP-His” value [1] was 7% and the “A450 as % of hEphA4-SEAP-His” value [2] was 6.9%.

B18: humanized antibody No. 157 (antibody, human IgG2)
heavy: B2 heavy with K46E
light: B1 light with K45Q, S80P
notes: human Ig kappa; also called L1-6/HA1
With B18 the “A450 as % of hEphA4-SEAP-His” value [1] was 6.2% and the “A450 as % of hEphA4-SEAP-His” value [2] was 6.1%.

B19: humanized antibody No. 139 (antibody, human IgG2)
heavy: B2 heavy with K46E
light: B1 light with L48V, S80P
notes: human Ig kappa; also called L1-4/HA1
With B19 the “A450 as % of hEphA4-SEAP-His” value [1] was 5.7% and the “A450 as % of hEphA4-SEAP-His” value [2] was 5.5%.

B20: humanized antibody No. 145 (antibody, human IgG2)
heavy: B2 heavy with Q62D, G63D, T65K
light: B1 light
notes: as for B1
With B20 the “A450 as % of hEphA4-SEAP-His” value [1] was 6.7% and the “A450 as % of hEphA4-SEAP-His” value [2] was 6.5%.

B21: humanized antibody No. 159 (antibody, human IgG2)
heavy: B2 heavy with Q62D, G63D, T65K
light: B1 light with K45Q, S80P
notes: human Ig kappa; also called L1-6/HK2
B21 was tested, and the “A450 as % of hEphA4-SEAP-His” value [1] was 5.4% and the “A450 as % of hEphA4-SEAP-His” value [2] was 5.3%.

B22: humanized antibody No. 87 (antibody, human IgG1, kappa)
heavy: B1 heavy with K46E, D62Q, D63G, K65T
light: B1 light with K45Q, S80P
notes: as for B18
In the case of B22, the “A450 as % of hEphA4-SEAP-His” value [1] is reported as 5.3% and the “A450 as % of hEphA4-SEAP-His” value [2] is reported as 5.3%.

B23: humanized antibody No. 142 (antibody, human IgG2)
heavy: B2 heavy with Q62D, G63D, T65K
light: B1 light with L48V, S80P
notes: human Ig kappa; also called L1-4/HK2
In the case of B23, the “A450 as % of hEphA4-SEAP-His” value [1] is reported as 5.6% and the “A450 as % of hEphA4-SEAP-His” value [2] is reported as 5.6%.

B24: humanized antibody No. 141 (antibody, human IgG2)
heavy: B2 heavy with K46E, Q62D, G63D, T65K
light: B1 light with L48V, S80P
notes: human Ig kappa; also called L1-4/HK1
For B24, the “A450 as % of hEphA4-SEAP-His” value [1] was 5.3% and the “A450 as % of hEphA4-SEAP-His” value [2] was 5.4%.

B25: humanized antibody No. 91 (antibody, human IgG1, kappa)
heavy: B1 heavy
light: B1 light with K45Q, S80P
notes: as for B21
In the case of B25, the “A450 as % of hEphA4-SEAP-His” value [1] is reported as 5.8% and the “A450 as % of hEphA4-SEAP-His” value [2] is reported as 6.6%.
